Tested on: Escherichia coli TOP10
Assay: shrunken log2 fold change of peptide-encoding DNA abundance (4.5 h post-induction vs induction); higher = less antimicrobial activity (less host growth inhibition)
Conditions: time post-induction: 4.5 h; library: site-saturation at positions 5, 18, 19, 20
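Further: peptides expressed intracellularly from a pBAD plasmid library in pooled LB shake-flask culture, induced with 0.3% L-arabinose, DNA abundance read by NGS, three biological replicates, DESeq2 with apeglm shrinkage.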

Q: RRIRRRPPRLPRPRPRPFEFPRP was tested. Which “shrunken log2 fold change” value did it give?
A: 0.117

Q: With RRIRMRPPRLPRPRPRPLKIPRP as the sequence, how does the “shrunken log2 fold change” value read?
A: -0.0474

Q: How did the “shrunken log2 fold change” value turn out when RRIRHRPPRLPRPRPRPRVIPRP was run?
A: -0.12

Q: With RRIRRRPPRLPRPRPRPWAWPRP as the sequence, how does the “shrunken log2 fold change” value read?
A: 0.0216

Q: RRIRFRPPRLPRPRPRPCMVPRP was tested. Which “shrunken log2 fold change” value did it give?
A: 1.01

Q: How did the “shrunken log2 fold change” value turn out when RRIRARPPRLPRPRPRPGCYPRP was run?
A: -0.00374

Q: With RRIRFRPPRLPRPRPRPKWWPRP as the sequence, how does the “shrunken log2 fold change” value read?
A: -0.0582

Q: For RRIRYRPPRLPRPRPRPYVCPRP, which “shrunken log2 fold change” value is on record?
A: -1.14

Q: With RRIRHRPPRLPRPRPRPAITPRP as the sequence, how does the “shrunken log2 fold change” value read?
A: -0.0845

Q: Which “shrunken log2 fold change” value does the source give for RRIRTRPPRLPRPRPRPGGKPRP here?
A: -0.215

Q: RRIRERPPRLPRPRPRPNRAPRP was tested. Which “shrunken log2 fold change” value did it give?
A: 0.0169

Q: With RRIRRRPPRLPRPRPRPFREPRP as the sequence, how does the “shrunken log2 fold change” value read?
A: 0.163

Q: For RRIRGRPPRLPRPRPRPIMPPRP, which “shrunken log2 fold change” value is on record?
A: 0.0639

Q: With RRIRYRPPRLPRPRPRPQFVPRP as the sequence, how does the “shrunken log2 fold change” value read?
A: 0.119

Q: Which “shrunken log2 fold change” value does the source give for RRIRNRPPRLPRPRPRPDHEPRP here?
A: -0.039

Q: For RRIRQRPPRLPRPRPRPFNQPRP, which “shrunken log2 fold change” value is on record?
A: 0.00312

Q: For RRIRRRPPRLPRPRPRPLSCPRP, which “shrunken log2 fold change” value is on record?
A: -0.146

Q: With RRIRLRPPRLPRPRPRPTVRPRP as the sequence, how does the “shrunken log2 fold change” value read?
A: -0.107

Q: For RRIRHRPPRLPRPRPRPPVEPRP, which “shrunken log2 fold change” value is on record?
A: 0.126

Q: How did the “shrunken log2 fold change” value turn out when RRIRERPPRLPRPRPRPWPPPRP was run?
A: 0.045

Q: RRIRRRPPRLPRPRPRPRCQPRP was tested. Which “shrunken log2 fold change” value did it give?
A: 0.385

Q: How did the “shrunken log2 fold change” value turn out when RRIRFRPPRLPRPRPRPGMQPRP was run?
A: 0.237

Q: How did the “shrunken log2 fold change” value turn out when RRIRCRPPRLPRPRPRPNMIPRP was run?
A: -0.829

Q: How did the “shrunken log2 fold change” value turn out when RRIRPRPPRLPRPRPRPNAVPRP was run?
A: 0.0397

Q: With RRIRFRPPRLPRPRPRPWVRPRP as the sequence, how does the “shrunken log2 fold change” value read?
A: 0.0245

Q: RRIRIRPPRLPRPRPRPAEIPRP was tested. Which “shrunken log2 fold change” value did it give?
A: -0.484

Q: For RRIRCRPPRLPRPRPRPIYKPRP, which “shrunken log2 fold change” value is on record?
A: -0.559

Q: RRIRVRPPRLPRPRPRPEIPPRP was tested. Which “shrunken log2 fold change” value did it give?
A: 0.054

Q: How did the “shrunken log2 fold change” value turn out when RRIRSRPPRLPRPRPRPVGPPRP was run?
A: 0.373

Q: With RRIRHRPPRLPRPRPRPERSPRP as the sequence, how does the “shrunken log2 fold change” value read?
A: 0.0418

Q: With RRIRKRPPRLPRPRPRPHVYPRP as the sequence, how does the “shrunken log2 fold change” value read?
A: 0.22

Q: RRIRQRPPRLPRPRPRPGQHPRP was tested. Which “shrunken log2 fold change” value did it give?
A: -0.0301

Q: Which “shrunken log2 fold change” value does the source give for RRIRYRPPRLPRPRPRPLSPPRP here?
A: -0.352

Q: RRIRCRPPRLPRPRPRPKYCPRP was tested. Which “shrunken log2 fold change” value did it give?
A: -0.264

Q: For RRIRCRPPRLPRPRPRPWSIPRP, which “shrunken log2 fold change” value is on record?
A: 0.0457

Q: With RRIRHRPPRLPRPRPRPHYWPRP as the sequence, how does the “shrunken log2 fold change” value read?
A: -0.588

Q: How did the “shrunken log2 fold change” value turn out when RRIRQRPPRLPRPRPRPWEFPRP was run?
A: -0.123

Q: How did the “shrunken log2 fold change” value turn out when RRIRSRPPRLPRPRPRPHIEPRP was run?
A: -0.295

Q: How did the “shrunken log2 fold change” value turn out when RRIRPRPPRLPRPRPRPLMHPRP was run?
A: -0.0913

Q: With RRIRRRPPRLPRPRPRPAKNPRP as the sequence, how does the “shrunken log2 fold change” value read?
A: 0.279

Q: Which “shrunken log2 fold change” value does the source give for RRIRIRPPRLPRPRPRPFEEPRP here?
A: -0.569

Q: Which “shrunken log2 fold change” value does the source give for RRIRRRPPRLPRPRPRPCYGPRP here?
A: -0.214

Q: RRIRVRPPRLPRPRPRPCIPPRP was tested. Which “shrunken log2 fold change” value did it give?
A: -0.467

Q: With RRIRCRPPRLPRPRPRPFDVPRP as the sequence, how does the “shrunken log2 fold change” value read?
A: -0.479

Q: How did the “shrunken log2 fold change” value turn out when RRIRFRPPRLPRPRPRPGAIPRP was run?
A: -0.244

Q: Which “shrunken log2 fold change” value does the source give for RRIRERPPRLPRPRPRPAFRPRP here?
A: -0.0607

Q: With RRIRYRPPRLPRPRPRPGVHPRP as the sequence, how does the “shrunken log2 fold change” value read?
A: -0.452

Q: For RRIRLRPPRLPRPRPRPIQWPRP, which “shrunken log2 fold change” value is on record?
A: 0.146

Q: RRIRRRPPRLPRPRPRPHRQPRP was tested. Which “shrunken log2 fold change” value did it give?
A: 0.0248

Q: Which “shrunken log2 fold change” value does the source give for RRIRWRPPRLPRPRPRPSHFPRP here?
A: -0.151

Q: RRIRERPPRLPRPRPRPKYSPRP was tested. Which “shrunken log2 fold change” value did it give?
A: -0.866

Q: With RRIRFRPPRLPRPRPRPDNWPRP as the sequence, how does the “shrunken log2 fold change” value read?
A: -0.25

Q: For RRIRNRPPRLPRPRPRPETIPRP, which “shrunken log2 fold change” value is on record?
A: -0.0777

Q: Which “shrunken log2 fold change” value does the source give for RRIRFRPPRLPRPRPRPMDLPRP here?
A: -0.161

Q: How did the “shrunken log2 fold change” value turn out when RRIRPRPPRLPRPRPRPELSPRP was run?
A: 0.46

Q: How did the “shrunken log2 fold change” value turn out when RRIRYRPPRLPRPRPRPVTMPRP was run?
A: -0.688

Q: For RRIRMRPPRLPRPRPRPANLPRP, which “shrunken log2 fold change” value is on record?
A: 0.013

Q: Which “shrunken log2 fold change” value does the source give for RRIRHRPPRLPRPRPRPAYLPRP here?
A: -0.323

Q: For RRIRNRPPRLPRPRPRPMGVPRP, which “shrunken log2 fold change” value is on record?
A: 0.165

Q: How did the “shrunken log2 fold change” value turn out when RRIRPRPPRLPRPRPRPWKQPRP was run?
A: 0.0524

Q: Which “shrunken log2 fold change” value does the source give for RRIRWRPPRLPRPRPRPIERPRP here?
A: 0.0857

Q: RRIRMRPPRLPRPRPRPWLCPRP was tested. Which “shrunken log2 fold change” value did it give?
A: 0.219

Q: With RRIRQRPPRLPRPRPRPPDRPRP as the sequence, how does the “shrunken log2 fold change” value read?
A: 0.0477

Q: For RRIRLRPPRLPRPRPRPWVVPRP, which “shrunken log2 fold change” value is on record?
A: 0.0937

Q: Which “shrunken log2 fold change” value does the source give for RRIRPRPPRLPRPRPRPIAYPRP here?
A: -0.0833

Q: With RRIRWRPPRLPRPRPRPDAYPRP as the sequence, how does the “shrunken log2 fold change” value read?
A: 0.309

Q: Which “shrunken log2 fold change” value does the source give for RRIRMRPPRLPRPRPRPMWDPRP here?
A: 0.128

Q: With RRIRRRPPRLPRPRPRPGPHPRP as the sequence, how does the “shrunken log2 fold change” value read?
A: 0.437

Q: With RRIRVRPPRLPRPRPRPACTPRP as the sequence, how does the “shrunken log2 fold change” value read?
A: -0.0478

Q: With RRIRKRPPRLPRPRPRPCRVPRP as the sequence, how does the “shrunken log2 fold change” value read?
A: 0.0931

Q: Which “shrunken log2 fold change” value does the source give for RRIRQRPPRLPRPRPRPTQLPRP here?
A: 0.375

Q: With RRIRSRPPRLPRPRPRPKTKPRP as the sequence, how does the “shrunken log2 fold change” value read?
A: 0.000308

Q: RRIRQRPPRLPRPRPRPQLGPRP was tested. Which “shrunken log2 fold change” value did it give?
A: -0.194

Q: Which “shrunken log2 fold change” value does the source give for RRIRMRPPRLPRPRPRPWIMPRP here?
A: 0.00173

Q: How did the “shrunken log2 fold change” value turn out when RRIRARPPRLPRPRPRPQWRPRP was run?
A: 0.218

Q: How did the “shrunken log2 fold change” value turn out when RRIRCRPPRLPRPRPRPSWKPRP was run?
A: -0.0761

Q: How did the “shrunken log2 fold change” value turn out when RRIRMRPPRLPRPRPRPNLFPRP was run?
A: 0.124

Q: Which “shrunken log2 fold change” value does the source give for RRIRNRPPRLPRPRPRPVEAPRP here?
A: 0.277

Q: Which “shrunken log2 fold change” value does the source give for RRIRHRPPRLPRPRPRPMWYPRP here?
A: -0.0997

Q: How did the “shrunken log2 fold change” value turn out when RRIRSRPPRLPRPRPRPQTLPRP was run?
A: -0.119

Q: Which “shrunken log2 fold change” value does the source give for RRIRMRPPRLPRPRPRPIWFPRP here?
A: 0.1

Q: How did the “shrunken log2 fold change” value turn out when RRIRFRPPRLPRPRPRPHGPPRP was run?
A: 0.11

Q: For RRIRWRPPRLPRPRPRPFWNPRP, which “shrunken log2 fold change” value is on record?
A: -0.175

Q: For RRIRIRPPRLPRPRPRPYHPPRP, which “shrunken log2 fold change” value is on record?
A: -0.0475

Q: RRIRYRPPRLPRPRPRPGGPPRP was tested. Which “shrunken log2 fold change” value did it give?
A: 0.106

Q: Which “shrunken log2 fold change” value does the source give for RRIRMRPPRLPRPRPRPHRRPRP here?
A: 0.0631

Q: RRIRNRPPRLPRPRPRPMELPRP was tested. Which “shrunken log2 fold change” value did it give?
A: -0.182

Q: Which “shrunken log2 fold change” value does the source give for RRIRGRPPRLPRPRPRPQFSPRP here?
A: 0.0687

Q: Which “shrunken log2 fold change” value does the source give for RRIRDRPPRLPRPRPRPPVNPRP here?
A: 0.519

Q: For RRIRIRPPRLPRPRPRPRRMPRP, which “shrunken log2 fold change” value is on record?
A: -0.12

Q: Which “shrunken log2 fold change” value does the source give for RRIRSRPPRLPRPRPRPLRDPRP here?
A: 0.439

Q: With RRIRCRPPRLPRPRPRPINKPRP as the sequence, how does the “shrunken log2 fold change” value read?
A: -1.19

Q: Which “shrunken log2 fold change” value does the source give for RRIRQRPPRLPRPRPRPPCSPRP here?
A: 0.219

Q: With RRIRTRPPRLPRPRPRPNVTPRP as the sequence, how does the “shrunken log2 fold change” value read?
A: -0.182

Q: RRIRFRPPRLPRPRPRPLQWPRP was tested. Which “shrunken log2 fold change” value did it give?
A: -0.0201

Q: RRIRTRPPRLPRPRPRPQGEPRP was tested. Which “shrunken log2 fold change” value did it give?
A: -0.0823

Q: How did the “shrunken log2 fold change” value turn out when RRIRPRPPRLPRPRPRPEAGPRP was run?
A: 0.566

Q: RRIRQRPPRLPRPRPRPVTFPRP was tested. Which “shrunken log2 fold change” value did it give?
A: -0.0496

Q: How did the “shrunken log2 fold change” value turn out when RRIRYRPPRLPRPRPRPMYSPRP was run?
A: -0.018

Q: For RRIRHRPPRLPRPRPRPSKAPRP, which “shrunken log2 fold change” value is on record?
A: -0.463

Q: RRIRCRPPRLPRPRPRPMLQPRP was tested. Which “shrunken log2 fold change” value did it give?
A: 0.0596

Q: Which “shrunken log2 fold change” value does the source give for RRIRCRPPRLPRPRPRPVLLPRP here?
A: -0.385

Q: Which “shrunken log2 fold change” value does the source give for RRIRQRPPRLPRPRPRPIGGPRP here?
A: -0.0328

Q: How did the “shrunken log2 fold change” value turn out when RRIRVRPPRLPRPRPRPKDHPRP was run?
A: -0.308

Q: With RRIRERPPRLPRPRPRPYFRPRP as the sequence, how does the “shrunken log2 fold change” value read?
A: -0.622

Q: How did the “shrunken log2 fold change” value turn out when RRIRSRPPRLPRPRPRPHYVPRP was run?
A: -0.488

Q: For RRIRRRPPRLPRPRPRPMTYPRP, which “shrunken log2 fold change” value is on record?
A: -0.0343

Q: Which “shrunken log2 fold change” value does the source give for RRIRFRPPRLPRPRPRPLMIPRP here?
A: -0.266

Q: RRIRNRPPRLPRPRPRPYAHPRP was tested. Which “shrunken log2 fold change” value did it give?
A: -0.176
